Changes are numbered by the printed parent chain.
B1: H10 affinity-matured antibody fragment, kappa light chain fusion protein (scFv, V domains shown)
VH: EVQLLESGGGLVQPGGSLRLSCAASGFTFSDYYMSWVRQAPGKGLEWVSGIYYDGTNVYYADSVKGRFTISRDNSKNTLYLQMNSLRAEDTAVYYCAKGPLFCNDRTCSYYYAMDVWGQGTLVTVSS
VL: QSVLTQPPSASGTPGQRVTISCLGGYSNIGSNAVYWYQQLPGTAPKLLIYDDNHRPSGVPDRFSGSKSGTSASLAISGLRSEDEADYYCGTWDYSLSGYVLGGGTKLTVL
B2: D7 affinity-matured antibody fragment, kappa light chain fusion protein (scFv, V domains shown)
VH: B1 VH with N57A, V58F
VL: B1 VL with L23E, G25Q, Y26P
B3: E12 affinity-matured antibody fragment, kappa light chain fusion protein (scFv, V domains shown)
VH: B1 VH with G55S, T56F, N57V, V58P
VL: B1 VL with L23A, G25S, Y26A
B4: T3C1 affinity-matured antibody fragment, kappa light chain fusion protein (scFv, V domains shown)
VH: B1 VH with T56S, N57A, V58S
VL: B1 VL with L23S, Y26P
B5: 2F1 affinity-matured antibody fragment, kappa light chain fusion protein (scFv, V domains shown)
VH: B1 VH with T56S, N57S, V58Q, Y59G, Y60W, A61S, D62S
VL: B1 VL with L23Y, G25Q, Y26P
B6: C2 affinity-matured antibody fragment, kappa light chain fusion protein (scFv, V domains shown)
VH: B1 VH with V58Q
VL: B1 VL with L23T, Y26L
B7: D10 affinity-matured antibody fragment, kappa light chain fusion protein (scFv, V domains shown)
VH: B1 VH with T56S, N57A
VL: B1 VL with L23W, G25D
B8: E3 affinity-matured antibody fragment, kappa light chain fusion protein (scFv, V domains shown)
VH: B1 VH with N57A, V58M
VL: B1 VL with L23S
B9: T3H9 affinity-matured antibody fragment, kappa light chain fusion protein (scFv, V domains shown)
VH: B1 VH with G55A, T56S, N57A, V58E
VL: B1 VL with L23S, G25M, Y26L

Tests used:
[1] = target: CD19-ECD Fc fusion protein (human) (UniProt P15391); test: ELISA, plates coated with CD19-ECD Fc, dose series of purified kappa fusion antibody fragment, OD450, GraphPad Prism
[2] = target: CD19 on the CD19-positive RaJi cell line (UniProt P15391); test: flow cytometry on the CD19-positive RaJi cell line, dose series, anti-human IgG-FITC, GraphPad Prism

Row | Binder | EC50 [1] | EC50 [2]
1 | B1 | 3.31 nM | –
2 | B2 | 3.2 nM | –
3 | B3 | 2.56 nM | –
4 | B4 | 2.4 nM | –
5 | B5 | 1.6 nM | 10.5 nM
6 | B6 | 5.81 nM | 61.2 nM
7 | B7 | 2.48 nM | –
8 | B8 | 1.87 nM | 26.1 nM
9 | B9 | 2.32 nM | –
